Series [1] in a line: Evaluation of cardiovascular effects in the conscious telemetered mouse (subcutaneous administration). The class given is in vivo, Male Crl: CD1(1CR) mice. The settings on record: 800 μg CNP-38 (eq)/kg sc. On the procedure:
Male Crl: CD1(1CR) mice (age range 8-13 weeks and body weight range 27.3-35.6 g at start of dosing) were surgically implanted with a TA11PA-C10 telemetry transmitter (Data Sciences International (DSI)) in the carotid artery. The body of the transmitter was placed subcutaneously in the lateral flank of the mouse. The mice were dosed subcutaneously in a latin square crossover design with at least 72 hours between dosing occasions. […] At least four mice were included at each dose level. Blood pressure (systolic (SAP), diastolic (DAP) and mean (MAP) and heart rate (HR, derived from blood pressure), were recorded using a digital data capture system linked with a DSITM Ponemah data acquisition and analysis system. The capture system allowed recording of the cardiovascular parameters whilst the mice were in individual cages. On the day of each test session the animals were weighed and a predose recording was performed for at least 60 min prior to dosing. Each mouse was returned to the home cage and the cardiovascular parameters were recorded for approximately 48 hours postdose. Blood pressure and HR were reported at the following time points: −30, −20, −10, 5, 15 and 30 min postdose and 1, 2, 6, 12, 18, 24, 30, 36, 42 and 48 hours postdose. Each time point was presented as the average value of five minute's recording prior to the time point. […]

In a further series the target is T1, recombinant human NEP (Homo sapiens, UniProt P08473).
T1 construct: purchased Enzo Life Sciences GmbH, Lörrach, Germany
The series is described as follows: Digest of CNP variants by Neutral Endopeptidase in vitro. The class given is in vitro ADME. Particulars: 100 μg CNP equivalents/mL, pH 7.4, 37° C., up to 4 days, normalized to mean CNP-34 or CNP-38 half life. The text has this:
Samples were taken at different time intervals. […] The resulting reaction products were assigned using HPLC-MS.

Series [2] in a line: Pharmacokinetic profile of conjugate 11i after subcutaneous single-dose administration to cynomolgus monkeys. The class given is in vivo. The settings on record: single s.c. 40 μg CNP-38 eq/kg. The protocol: As internal standard deuterated CNP-38 conjugate was used.
After 3 hours incubation at 37° C. […] 10 μL were injected into the UHPLC-MS system.

T1 sequence (P08473 whole entry): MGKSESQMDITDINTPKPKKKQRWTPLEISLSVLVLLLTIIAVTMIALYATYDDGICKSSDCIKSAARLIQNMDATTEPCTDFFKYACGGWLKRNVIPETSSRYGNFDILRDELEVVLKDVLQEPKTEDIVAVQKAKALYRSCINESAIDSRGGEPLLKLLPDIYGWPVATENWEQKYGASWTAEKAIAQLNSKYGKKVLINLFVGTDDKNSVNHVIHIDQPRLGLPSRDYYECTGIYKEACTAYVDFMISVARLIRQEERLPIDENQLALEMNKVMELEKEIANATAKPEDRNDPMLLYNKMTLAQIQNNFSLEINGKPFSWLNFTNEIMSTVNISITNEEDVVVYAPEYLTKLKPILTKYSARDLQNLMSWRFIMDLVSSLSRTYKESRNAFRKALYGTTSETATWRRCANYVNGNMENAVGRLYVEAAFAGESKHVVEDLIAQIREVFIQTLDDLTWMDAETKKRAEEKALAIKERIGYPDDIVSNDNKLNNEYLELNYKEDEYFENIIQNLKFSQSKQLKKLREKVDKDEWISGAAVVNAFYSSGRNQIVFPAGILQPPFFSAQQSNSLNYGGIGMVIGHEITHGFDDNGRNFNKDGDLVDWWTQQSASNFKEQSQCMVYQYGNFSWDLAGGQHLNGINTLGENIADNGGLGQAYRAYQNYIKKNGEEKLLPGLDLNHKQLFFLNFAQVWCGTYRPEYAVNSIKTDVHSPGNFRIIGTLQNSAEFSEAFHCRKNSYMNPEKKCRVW

Take `CC[C@H](C)[C@@H]1NC(=O)[C@H](CCCNC(=N)N)NC(=O)[C@H](CC(=O)O)NC(=O)[C@H](CC(C)C)NC(=O)[C@H](CCCCN)NC(=O)[C@H](CC(C)C)NC(=O)CNC(=O)[C@H](Cc2ccccc2)NC(=O)[C@@H](NC(=O)CNC(=O)[C@H](CCCCN)NC(=O)[C@H](CO)NC(=O)[C@H](CC(C)C)NC(=O)CNC(=O)[C@H](CCCCN)NC(=O)[C@H](CCCCN)NC(=O)[C@H](CC(N)=O)NC(=O)[C@H](C)NC(=O)CNC(=O)[C@H](CCCCN)NC(=O)[C@H](Cc2ccc(O)cc2)NC(=O)[C@H](CCCCN)NC(=O)[C@H](CCCNC(=N)N)NC(=O)[C@H](C)NC(=O)[C@H](CC(N)=O)NC(=O)[C@@H]2CCCN2C(=O)[C@H](Cc2c[nH]cn2)NC(=O)[C@H](CCC(=O)O)NC(=O)[C@H](CCC(N)=O)NC(=O)[C@@H](N)CC(C)C)CSSC[C@@H](C(=O)O)NC(=O)CNC(=O)[C@H](CC(C)C)NC(=O)CNC(=O)[C@H](CO)NC(=O)[C@H](CCSC)NC(=O)[C@H](CO)NC(=O)CNC1=O` [CNP-38, reference compound]: the “effect on HR” value in series [1] is recorded as “not impacted”. Besides, the “effect on MAP / blood pressure” value in series [1] (5, 15 and 30 min post dose) is listed as “significant decrease in MAP”. In the case of “Permanent Lys16 CNP-34 PEG 5 kDa Conjugate [Conjugate 17e]”, in the series with recombinant human NEP, the half life norm. worked out at 54.23 h. Turning to “Permanent Lys22 CNP-34 PEG 5 kDa Conjugate [Conjugate 18e]”, in the series with recombinant human NEP, the half life norm. is reported as 38.87 h. Consider “Permanent Lys26 CNP-38 PEG4×10 kDa Conjugate [Conjugate 12g]”, for which the half life norm. entry in the series with recombinant human NEP was “Almost no proteolysis”. Same read-out and setting: as for “Permanent Lys26 CNP-38 PEG 5 kDa Conjugate [Conjugate 19e]”, the figure is 62.76 h.

Consider “Permanent N-Terminal CNP-34 PEG 5 kDa Conjugate [Conjugate 14e]”, for which the half life norm. result in the series with recombinant human NEP is “Almost no proteolysis”.

Regarding “Permanent N-Terminal CNP-38 PEG 5 kDa Conjugate [Conjugate 15e]”, in the series with recombinant human NEP, the half life norm. result is given as “Almost no proteolysis”.

Consider “Reversible Lys26 CNP-38 PEG4×10 kDa Conjugate [Conjugate 11i]”, for which the tolerability result in series [2] is recorded as “well tolerated”.

These data come from US20250090639A1, “CONTROLLED-RELEASE CNP AGONISTS WITH LOW INITIAL NPR-B ACTIVITY” (priority 2016, published 2025).
